Values quoted from earlier work in paper PMC7431755, “Automated high-content imaging for cellular uptake, from the Schmuck cation to the latest cyclic oligochalcogenides” (Beilstein Journal of Organic Chemistry, 2020).
Read-outs that look alike come from different tables or passages of the source.

System: HGM cells
Procedure: The CP50 value of 7.3 ± 0.5 µM obtained for 25 outperformed the CP50 value of 14.9 ± 0.5 μM of the previously reported cell-penetrating streptavidin, in which four asparagusic acids are covalently bound to the protein through irreversible triazole linkages. The CP50 value of 7.3 ± 0.5 µM of 25 was not far above the CP50 value of 3.1 ± 0.5 µM of HIV Tat, the original CPP [55]. As the uptake efficiency generally decreases with the size, this similarity is particularly impressive, considering that the COC carrying a 52 kDa protein is compared to a small undecapeptide.

Row | Substance | CP50 (CAPA) [µM] | CP50 [µM]
1 | HIV Tat: the original CPP, a small undecapeptide | 3.1 ± 0.5 | –
2 | cell-penetrating streptavidin: previously reported streptavidin with four asparagusic acids covalently bound through irreversible triazole linkages | – | 14.9 ± 0.5
